The record followed here is article PMC12012487.

For experiment [1], the target named is engineered strepII-tagged H77c-derived soluble native-like E1E2 (Hepatitis C virus genotype 1a, isolate H77 (H77c)). The experiment in a line: mass photometry.
In experiment [2] the target is engineered strepII-tagged H77c-derived soluble native-like E1E2 (hepatitis C virus, strain H77c). As to the kind of experiment: mass photometry.

“And” between values parts separate entries of the source, which are not always exact repeats. Equal entries are not always repeated.

Broadly, the stoichiometry N is a count of units in the complex or per binding partner. Turning to AR3C monoclonal antibody, in experiment [1], the relative abundance of the 1:1 E1E2:Ab complex came out at 60%; the relative abundance of the 2:1 E1E2:Ab complex was determined as 40%; the stoichiometry N is 1 E1E2:Ab and 2 E1E2:Ab.
Turning to AR4A monoclonal antibody, in experiment [1], the relative abundance of the 1:1 E1E2:Ab complex was 60%; the relative abundance of the 2:1 E1E2:Ab complex was found to be 40%; the stoichiometry N is 1 E1E2:Ab and 2 E1E2:Ab.
For the substance “AR4A/AR3C CamX6 hinge bispecific antibody (CrossMab)”, in experiment [2], the stoichiometry N was 1 E1E2:Ab.
For the substance “AR4A/AR3C IgG1 hinge bispecific antibody”, in experiment [2], the relative abundance of the 2:1 E1E2:Ab complex was found to be 67%, the stoichiometry N is 2 E1E2:Ab, the stoichiometry N (E1E2:Ab (2:2 complex)) was determined as 1 and the stoichiometry N (E1E2:Ab (3:2 complex)) came out at 1.5.
For “AR4A/AR3C IgG3C- hinge bispecific antibody (CrossMab)”, the stoichiometry N in experiment [2] is 1 E1E2:Ab.
